# Tested on: K4 kissing-loop RNA reporter
# Assay: apparent KD of K4 kissing-loop reporter; higher = weaker reporter binding
# Settings: Eterna round: R107
# Procedure: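 RNA-MaP round R107: designed RNA switches with theophylline, tryptophan, arginine or FMN aptamers are transcribed on-chip within common flanks. They are titrated with a labelled K4 kissing-loop RNA reporter in RNA-MaP buffer (100 mM Tris pH 7.5, 80 mM KCl, 4 mM MgCl2), without ligand or with the indicated ligand. Median apparent KD per design.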
# [1] = input ligand: theophylline 20 uM
# [2] = input ligand: tryptophan 2.4 mM
# 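Further: bound reporter read as fluorescence of individual clusters on recovered sequencing chips by microscopy, with normalized cluster intensities fitted with a binding model.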
Sequence,apparent KD of K4 kissing-loop reporter (input ligand: FMN 200 uM) [nM],apparent KD of K4 kissing-loop reporter (input ligand: arginine 13.2 mM) [nM],apparent KD of K4 kissing-loop reporter (input ligand: none) [nM],apparent KD of K4 kissing-loop reporter [1] [nM],apparent KD of K4 kissing-loop reporter [2] [nM]
GAUCCAUGACAAGGAUAUUCGCCAACGGUGCCGGAGUGAUGUUCUGCACAACAGACUACAAGUAAGGAAGAAGGUGUCAGUUACC [theeternabot_sameState_KL_FMN_B_29],595,843,946,609,561
GACGGGCAGUGAUGUUGCCGGUCUCUUGGACGAGGACCGGUACGGCCGCCACUCGAUCUGAUGCAAGAAUCGCAUCUUUUAAUAA [Biququan],151,103,166,312,273
AGUGAUGUUUUUUUUAAGAGUGAUGUUUUUCGAGGACCGGUACGGCCGCCACUCGAGUGAUGAGUGCGGUGUUGUGAUGUUUAGU [ewmullin],606,402,530,475,467
UCGAUGGUCAGCGAUACCAGCCCAGUGAUGUUGGGCACAUGGUUGCGGAAAAUCCCAUUGGGCCCUUGGCAGCGCUUGCAUGGGU [Titiquesan],130,122,123,136,116
CCAACGUGAAAAGGAUAUCGCGAUGUGCACGACUAGUGAUGUUAGGAGAGGCUCGUUGAAUUGUACCGAGAAGGUUUUGAGUGGG [theeternabot_sameState_KL_FMN_B_16],227,160,240,231,196
GGGCCUAUUGAUGCUGGAGCAAUUCUGGAAGGAGCGCUCAAAGGAGCAGGUAGGUCGCCAGUAUGCAAGGGCAGUGAUGUUGCCC [Ersoarxe],238,164,233,145,189
GUACCUUGGAAACAAGGACCGCUAACCGAAGGAGCGCGUGAAAACGCAGGUAGGUCGCGGUAGCGGAGUGAUGUUCCGCGAGAGG [Excluson Arginine A GF 14],166,235,196,268,165
AACGCUGCCUGAGGAUAUAGAAACGAGUGAUGUUCGUGGAACGAGACCAGUGAUGUUGGCCUAUUUCUAGAAGGCAGGCAACCGC [Exclusion FMN B GF 1],155,121,148,123,125
GGCAUCCAUGGACAUAGUGAUGUUAUGUGCCGAGGACCGGUACGGCCGCCACUCGACCAUGGAUGCCGCAAUCGGAAACGAUUGC,1090,915,1610,888,115

# From the supplement of paper PMC9170038
